Measured values published in the supplement of paper PMC7125110.
± gives the standard error. Variants at the floor of the assay were thinned out.

B1: glmS ribozyme (parent)
chain: AUAAAAGCGCCAGAACUACAGAAAUGUAGUUGACGAGGAGGAGGUUUAUCGAAUUUUCGGCGGAUGCCUCCAAA

Legend:
Settings in all cases: with glucosamine-6-phosphate
glucosamine-6-phosphate [1] = variants of: B1; assay: self-cleavage kobs at 640 uM GlcN6P; higher = faster cleavage; RNA array
Procedure, shortened: (§1)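 Barcoded ribozyme variants on sequenced MiSeq chips were transcribed in situ by E. coli RNA polymerase and followed at 37 °C through a hybridised Cy3 probe. Glucosamine-6-phosphate at 40 μM to 10 mM in HEPES/KCl/Mg(OAc)2 buffer was flowed in, and tiles were imaged over ~14 h. Signals were normalised to baseline and to non-cleaving reference variants, and per-tile medians were fit to one- or two-exponential decays to give kobs. Weighted Michaelis–Menten fits across concentrations gave kcat and KM.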

glucosamine-6-phosphate [2] = variants of: B1; assay: self-cleavage kobs at 2500 uM GlcN6P; higher = faster cleavage; RNA array
Procedure, shortened: as §1

glucosamine-6-phosphate [3] = variants of: B1; assay: self-cleavage kobs at 10000 uM GlcN6P; higher = faster cleavage; RNA array
Procedure, shortened: as §1

Variant | self-cleavage kobs at 640 uM GlcN6P (glucosamine-6-phosphate [1]) | self-cleavage kobs at 2500 uM GlcN6P (glucosamine-6-phosphate [2]) | self-cleavage kobs at 10000 uM GlcN6P (glucosamine-6-phosphate [3])
G7C A15C A39U A42C U57A | < 1e-05 s⁻¹ | < 1e-05 s⁻¹ | –
C11U A14G A52G | 8.93e-05 ± 1.6e-05 s⁻¹ | 0.00029 ± 8e-05 s⁻¹ | –
C8U C16A G62U | < 1e-05 s⁻¹ | < 1e-05 s⁻¹ | –
G41C G51U A64C | < 1e-05 s⁻¹ | < 1e-05 s⁻¹ | –
A12U G40C C61A | < 1e-05 s⁻¹ | – | –
C8A U31A C34U G60C | < 1e-05 s⁻¹ | – | –
G7U U46A C68U | < 1e-05 s⁻¹ | < 1e-05 s⁻¹ | –
A42C A52U A64G | < 1e-05 s⁻¹ | < 1e-05 s⁻¹ | –
C16U C34A G37A C68G | 0.000275 ± 0.00012 s⁻¹ | – | –
C34U U55A U57G C61U | < 1e-05 s⁻¹ | – | < 1e-05 s⁻¹
C34G U65G | < 1e-05 s⁻¹ | < 1e-05 s⁻¹ | < 1e-05 s⁻¹
C10U U30A A33U | < 1e-05 s⁻¹ | – | –
U31G U55A U69G | 7.53e-05 ± 1.6e-05 s⁻¹ | 7.74e-05 ± 2.2e-05 s⁻¹ | –
C10G U54A C58G G62C C67G | 6.44e-05 ± 2.7e-05 s⁻¹ | 6.02e-05 ± 2.4e-05 s⁻¹ | –
A36C G38C G43U U54G U56C | < 1e-05 s⁻¹ | – | –
C10A U47A C70G | 0.000288 ± 0.00012 s⁻¹ | – | –

Variant | self-cleavage kobs at 640 uM GlcN6P (glucosamine-6-phosphate [1]) | self-cleavage kobs at 2500 uM GlcN6P (glucosamine-6-phosphate [2]) | self-cleavage kobs at 10000 uM GlcN6P (glucosamine-6-phosphate [3])
A15C G29C G35A C50A | < 1e-05 s⁻¹ | < 1e-05 s⁻¹ | –
G13U U31A U45G A48C | < 1e-05 s⁻¹ | < 1e-05 s⁻¹ | –
C8G A15C C16U | < 1e-05 s⁻¹ | – | –
A14G C67U C71U | 0.000875 ± 0.00018 s⁻¹ | 0.00249 ± 0.00091 s⁻¹ | –
G35A G44A | < 1e-05 s⁻¹ | < 1e-05 s⁻¹ | < 1e-05 s⁻¹
G43A G51U U65A G66U | < 1e-05 s⁻¹ | < 1e-05 s⁻¹ | –
U54A U57A | 4.89e-05 ± 1.3e-05 s⁻¹ | 0.000102 ± 2.8e-05 s⁻¹ | –
C34A G40C C61U | < 1e-05 s⁻¹ | – | –
G13U C34G U45C U47A | < 1e-05 s⁻¹ | < 1e-05 s⁻¹ | –
G29U A33U U56A A64G | < 1e-05 s⁻¹ | – | –
C10G C68G C71U | 3.95e-05 ± 1.7e-05 s⁻¹ | – | –
A14C G38U G44U C68G | < 1e-05 s⁻¹ | < 1e-05 s⁻¹ | –
G9C C10U U55A | < 1e-05 s⁻¹ | < 1e-05 s⁻¹ | –
U45C U47C | 0.000179 ± 5.5e-05 s⁻¹ | 0.000515 ± 0.00013 s⁻¹ | –
A12G G29C A39G A52C C67A | < 1e-05 s⁻¹ | – | –
